Patent US20190151365A1 (Novartis, published 2019)

Legend:
[1] = target: T1, human PD-1 (human, UniProt Q15116 25-167, limits assumed); assay: Biacore (SPR)
T1 construct: also called Programmed Death 1
From the text: PDR-001 was characterized in vitro for its affinity and activity on human PD-1. PDR-001 was expressed in a CHO cell line. PDR-001 bound with high affinity to human PD-1. […] In lymphocyte stimulation assays using human blood ex vivo, PDR-001 enhanced interleukin-2 (IL-2) production by approximately 2 fold in response to super antigen stimulation with Staphylococcus enterotoxin B (SEB).

[2] = target: T1, human PD-1; assay: cell-based or functional assay
[3] = target: T2, cynomolgus monkey PD-1 (cynomolgus monkey, UniProt B0LAJ3 25-170); assay: method not stated for this value (human value by Biacore)
T2 construct: also called cynomolgus PD-1
T2 sequence (B0LAJ3 entry or part of it limits assumed, form in doubt): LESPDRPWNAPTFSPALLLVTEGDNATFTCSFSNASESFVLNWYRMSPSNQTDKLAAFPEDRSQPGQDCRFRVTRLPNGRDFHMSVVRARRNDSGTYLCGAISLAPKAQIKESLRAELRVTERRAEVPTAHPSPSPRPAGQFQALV

T1 sequence (Q15116 25-167 limits assumed): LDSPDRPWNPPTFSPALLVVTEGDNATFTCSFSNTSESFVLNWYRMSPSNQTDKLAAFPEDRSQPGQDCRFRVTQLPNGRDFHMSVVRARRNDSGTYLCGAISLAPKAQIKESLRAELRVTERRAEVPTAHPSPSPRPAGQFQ

B1: PDR-001 (antibody, IgG4, V domains shown)
VH: EVQLVQSGAEVKKPGESLRISCKGSGYTFTTYWMHWVRQATGQGLEWMGNIYPGTGGSNFDEKFKNRVTITADKSTSTAYMELSSLRSEDTAVYYCTRWTTGTGAYWGQGTTVTVSS
VL: EIVLTQSPATLSLSPGERATLSCKSSQSLLDSGNQKNFLTWYQQKPGQAPRLLIYWASTRESGVPSRFSGSGSGTDFTFTISSLEAEDAATYYCQNDYSYPYTFGQGTKVEIK
notes: also called BAP049-Clone-E (variable regions)
In the case of B1, the Kd [1] is reported as 830 pM, the “interleukin-2 (IL-2) production in lymphocyte stimulation assays using human blood ex vivo, super antigen stimulation with Staphylococcus enterotoxin B (SEB)” value [2] is reported as roughly 2 fold and the Kd [3] is reported as 930 pM.
